Results as given in publication PMC8213806 (Nature Communications, 2021).

Assays:
Experiment in all cases: pull-down
Conditions in all cases: both partners purified
TcdB1 holotoxin D1812G = TcdB1 holotoxin D1812G (Clostridioides difficile (VPI10463 …, UniProt P18177 1-2366, D1812G))
TcdB1 holotoxin Y603G = TcdB1 holotoxin Y603G (Clostridioides difficile (VPI10463 …, UniProt P18177 1-2366, Y603G))
[1] = molecular target: TcdB1 holotoxin F1823G/I1825G/M1831G (Clostridioides difficile (VPI10463 …, UniProt P18177 1-2366, F1823G | I1825G | M1831G))
TcdB1 holotoxin S567E = TcdB1 holotoxin S567E (Clostridioides difficile (VPI10463 …, UniProt P18177 1-2366, S567E))
TcdB1 holotoxin N1850A = TcdB1 holotoxin N1850A (Clostridioides difficile (VPI10463 …, UniProt P18177 1-2366, N1850A))
TcdB1 holotoxin N1758A = TcdB1 holotoxin N1758A (Clostridioides difficile (VPI10463 …, UniProt P18177 1-2366, N1758A))
TcdB1 holotoxin Y621A = TcdB1 holotoxin Y621A (Clostridioides difficile (VPI10463 …, UniProt P18177 1-2366, Y621A))
[2] = molecular target: TcdB1 holotoxin V1816G/L1818G (Clostridioides difficile (VPI10463 …, UniProt P18177 1-2366, V1816G | L1818G))
[3] = molecular target: TcdB1 holotoxin L563G/I566G (Clostridioides difficile (VPI10463 …, UniProt P18177 1-2366, L563G | I566G))

Measured: binding result

B1: Repeat1-Fc (CSPG4 Repeat1, residues 410–551, fused to the N-terminus of human IgG1 Fc) (Fc fusion)
chain: ELPEPCVPEPGLPPVFANFTQLLTISPLVVAEGGTAWLEWRHVQPTLDLMEAELRKSQVLFSVTRGARHGELELDIPGAQARKMFTLLDVVNRKARFIHDGSEDTSDQLVLEVSVTARVPMPSCLRRGQTYLLPIQVNPVND
notes: also called CSPG4 decoy; source: FreeStyle HEK 293 cells, secreted, purified (Ni-NTA); not shown: Fc (human IgG1), C-terminal, kept
binds: all assays above
